Substitutions are numbered along the chain they refer to. Names may count otherwise.
B1: target 1 insC 3' of 11,insA 3' of 4 (mixed)
RNA 1: CACCCGUGCAAAAAUGCAGGGGUCUAAAACUGAGCGGAUAACCUCUCUAUGG
RNA 2: GGGAAUGGAUCCACAUCUACGAAUUCGUACCAUAGAGAGGUCUAUCCGCAUCACCGAGAUCGGAAGAGCACACGU
B2: target 1 insC 3' of 19,insU 3' of 1 (mixed)
RNA 1: B1 RNA 1
RNA 2: GGGAAUGGAUCCACAUCUACGAAUUCGUACCAUCAGAGAGGUUAUCCGCUCAUCCGAGAUCGGAAGAGCACACGU
B3: target 1 insA 3' of 13,insA 3' of 6 (mixed)
RNA 1: B1 RNA 1
RNA 2: B1 RNA 2 with G40A, U41G, C42U, G48A, C49G, A50C
B4: target 1 U3C,C21U (mixed)
RNA 1: B1 RNA 1
RNA 2: GGGAAUGGAUCCACAUCUACGAAUUCGUACUAUAGAGAGGUUAUCCGCCCACCGAGAUCGGAAGAGCACACGU
B5: target 1 A9U,A20U (mixed)
RNA 1: B1 RNA 1
RNA 2: B4 RNA 2 with U31C, A32U, A43U, C49U
B6: target 1 insA 3' of 8,insA 3' of 4 (mixed)
RNA 1: B1 RNA 1
RNA 2: B1 RNA 2 with C42U, U43A, A44U, U45A
B7: target 1 insG 3' of 7 (mixed)
RNA 1: B1 RNA 1
RNA 2: GGGAAUGGAUCCACAUCUACGAAUUCGUACCAUAGAGAGGUUAUCGCGCUCACCGAGAUCGGAAGAGCACACGU
B8: target 1 U3C,G12A (mixed)
RNA 1: B1 RNA 1
RNA 2: B4 RNA 2 with U31C, G40A
B9: target 1 complement block 4-6 (mixed)
RNA 1: B1 RNA 1
RNA 2: B4 RNA 2 with U31C, C46G, G47C, C48G, C49U
B10: target 1 A1C,C6U (mixed)
RNA 1: B1 RNA 1
RNA 2: B4 RNA 2 with U31C, C46U, C49U, A51C
B11: target 1 G15A,A18U (mixed)
RNA 1: B1 RNA 1
RNA 2: B4 RNA 2 with U31C, A34U, G37A, C49U
B12: target 1 G12C,C21A (mixed)
RNA 1: B1 RNA 1
RNA 2: B4 RNA 2 with U31A, G40C, C49U
B13: target 1 insC 3' of 15,insU 3' of 14 (mixed)
RNA 1: B1 RNA 1
RNA 2: GGGAAUGGAUCCACAUCUACGAAUUCGUACCAUAGAGCAUGGUUAUCCGCUCACCGAGAUCGGAAGAGCACACGU
B14: target 1 A1G,C6U (mixed)
RNA 1: B1 RNA 1
RNA 2: B4 RNA 2 with U31C, C46U, C49U, A51G
B15: target 1 insU 3' of 15,insC 3' of 3 (mixed)
RNA 1: B1 RNA 1
RNA 2: B1 RNA 2 with A38U, G39A, U41G, C42U, A50U, U51C
B16: target 1 insU 3' of 20,insG 3' of 3 (mixed)
RNA 1: B1 RNA 1
RNA 2: B2 RNA 2 with C34U, C51G, A52C, U53A
B17: target 1 C7A,U19C (mixed)
RNA 1: B1 RNA 1
RNA 2: B4 RNA 2 with U31C, U33C, C45A, C49U
B18: target 1 insA 3' of 19,insC 3' of 5 (mixed)
RNA 1: B1 RNA 1
RNA 2: B2 RNA 2 with C34A, U50C, C51U, A52C, U53A
B19: target 1 insC 3' of 22,insU 3' of 7 (mixed)
RNA 1: B1 RNA 1
RNA 2: GGGAAUGGAUCCACAUCUACGAAUUCGUACCCAUAGAGAGGUUAUCUCGCUCACCGAGAUCGGAAGAGCACACGU
B20: target 1 insA 3' of 21,insA 3' of 10 (mixed)
RNA 1: B1 RNA 1
RNA 2: B19 RNA 2 with C32A, U45A, C46U, U47C
B21: target 1 C2A,G15U (mixed)
RNA 1: B1 RNA 1
RNA 2: B4 RNA 2 with U31C, G37U, C49U, C50A
B22: target 1 insA 3' of 12,insG 3' of 9 (mixed)
RNA 1: B1 RNA 1
RNA 2: B1 RNA 2 with U41A, C42U, U45G, C46U, G48C, C49G, A50C
B23: target 1 insC 3' of 19,insG 3' of 2 (mixed)
RNA 1: B1 RNA 1
RNA 2: B2 RNA 2 with A52G, U53A
B24: target 1 insC 3' of 19,insG 3' of 6 (mixed)
RNA 1: B1 RNA 1
RNA 2: B2 RNA 2 with C49G, U50C, C51U, A52C, U53A
B25: target 1 A18C,C21A (mixed)
RNA 1: B1 RNA 1
RNA 2: B4 RNA 2 with U31A, A34C, C49U
B26: target 1 U10G,A16G (mixed)
RNA 1: B1 RNA 1
RNA 2: B4 RNA 2 with U31C, A36G, U42G, C49U
B27: target 1 insU 3' of 17,insU 3' of 9 (mixed)
RNA 1: B1 RNA 1
RNA 2: B13 RNA 2 with A36U, G37A, C38G, U40G, G42U, U44A, A45U
B28: target 1 insU 3' of 17,insC 3' of 17 (mixed)
RNA 1: B1 RNA 1
RNA 2: B13 RNA 2 with A36U, G37C, C38A, A39G, U40A
B29: target 1 U8C,A18C (mixed)
RNA 1: B1 RNA 1
RNA 2: B4 RNA 2 with U31C, A34C, U44C, C49U
B30: target 1 C2U,C6U (mixed)
RNA 1: B1 RNA 1
RNA 2: B4 RNA 2 with U31C, C46U, C49U, C50U

What follows are binders tested against T1, EsCas13d, nuclease-dead (Eubacterium siraeum, UniProt B0MS50, R295A;H300A;R849A;H854A) (assay: crRNA (strand 1, pre-loaded); Mg2+; 40 mM Tris-HCl pH 7.5, 150 mM NaCl, 6 mM MgCl2, 1 mM DTT, 0.1% Tween-20, 0.2 mg/ml BSA; 25 C; 10 min per concentration, then washed). Conditions: tags: His6-TwinStrep-SUMO cleaved; N-terminal SNAP kept (SNAP-Surface 488); label: 3' end held by stalled T7 RNA polymerase.
T1 sequence: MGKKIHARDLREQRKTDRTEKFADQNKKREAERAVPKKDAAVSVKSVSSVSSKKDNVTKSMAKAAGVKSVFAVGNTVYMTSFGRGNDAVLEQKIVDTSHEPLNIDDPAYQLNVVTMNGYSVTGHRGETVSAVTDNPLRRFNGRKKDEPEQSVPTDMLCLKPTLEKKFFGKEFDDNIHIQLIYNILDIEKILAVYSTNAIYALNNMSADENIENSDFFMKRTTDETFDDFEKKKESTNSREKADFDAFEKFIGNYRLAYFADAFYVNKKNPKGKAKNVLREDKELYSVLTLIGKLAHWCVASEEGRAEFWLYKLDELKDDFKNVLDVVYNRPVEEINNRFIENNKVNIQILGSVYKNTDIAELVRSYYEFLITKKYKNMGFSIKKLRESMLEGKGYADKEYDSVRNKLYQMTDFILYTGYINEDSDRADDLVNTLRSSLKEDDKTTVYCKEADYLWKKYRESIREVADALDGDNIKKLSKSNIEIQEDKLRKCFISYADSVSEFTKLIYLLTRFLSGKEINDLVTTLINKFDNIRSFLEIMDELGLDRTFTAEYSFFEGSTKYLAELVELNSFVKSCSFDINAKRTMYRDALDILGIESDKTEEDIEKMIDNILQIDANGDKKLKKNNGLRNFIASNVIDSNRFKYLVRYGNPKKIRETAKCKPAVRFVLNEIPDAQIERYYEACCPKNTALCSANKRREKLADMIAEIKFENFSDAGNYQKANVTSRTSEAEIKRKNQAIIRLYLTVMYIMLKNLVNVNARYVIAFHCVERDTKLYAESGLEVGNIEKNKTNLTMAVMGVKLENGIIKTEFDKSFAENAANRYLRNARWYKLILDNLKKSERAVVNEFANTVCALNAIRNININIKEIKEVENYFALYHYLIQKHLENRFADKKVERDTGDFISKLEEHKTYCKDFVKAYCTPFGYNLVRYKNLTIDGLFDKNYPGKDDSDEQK

Row | Binder | Kd [nM]
1 | B1 | 21.1 ± 2
2 | B2 | 39 ± 8
3 | B3 | 4.18 ± 0.24
4 | B4 | 27 ± 7
5 | B5 | 43 ± 4
6 | B6 | 8.4 ± 0.5
7 | B7 | 5.5 ± 0.16
8 | B8 | 11.1 ± 1.1
9 | B9 | 4.95 ± 0.15
10 | B10 | 9.2 ± 0.9
11 | B11 | 58 ± 11
12 | B12 | 58 ± 11
13 | B13 | 28.5 ± 2.3
14 | B14 | 8.9 ± 0.7
15 | B15 | 11.6 ± 1.1
16 | B16 | 9.4 ± 0.6
17 | B17 | 33.2 ± 3.5
18 | B18 | 48 ± 8
19 | B19 | 47 ± 8
20 | B20 | 28.2 ± 2.4
21 | B21 | 29 ± 5
22 | B22 | 46.9 ± 3.5
23 | B23 | 33 ± 5
24 | B24 | 32 ± 4
25 | B25 | 88 ± 23
26 | B26 | 42.2 ± 3.5
27 | B27 | 40 ± 8
28 | B28 | 36 ± 5
29 | B29 | 89 ± 9
30 | B30 | 8.3 ± 0.6
